This note sets out measurements from patent publication US7252958 (Novartis, dated 2007).

The data set concerns the molecule itself. The data set can be described thus: X-ray crystal structure of CD81-LEL.

B1: CD81-LEL (large extracellular loop of human CD81, amino acids 113-201) with C-terminal His-tag (receptor)
chain: FVNKDQIAKDVKQFYDQALQQAVVDDDANNAKAVVKTFHETLDCCGSSTLTALTTSVLKNNLCPSGSNIISNLFKEDCHQKIDDLFSGKHHHHHH
notes: Made in E. coli as a fusion with S. aureus Protein A and released by protease (thrombin) cleavage; it forms a homodimer in the crystal, with two chains per asymmetric unit; also called LEL-(His)6; hCD81-LEL
For B1, the binding result is recorded as “binds”.
